How the values were obtained:
breast cancer tissues = assay: IHC in a breast cancer cohort (primary tumors, metastases, NAT); design: species or system human
Source text: FIG. 13. The HCMV US28 expression was studied by immunohistochemistry (IHC) and in situ hybridisation (ISH) in a breast cancer cohort. […] Most tumor cells in this sample stained positively for the US28-13-5G6-1D3 rAb (brown colour). […] C. […] The arrows point out some positive HCMV DNA signals in the figure. […] A colour version of FIG. 13 is provided on the page after the non-colour version.
FIG. 14. […] B. Most cancer cells in the same sample were negative for the MAB810R staining. C. […] The arrows point out such positive HCMV DNA signals. The HCMV DNA was not seen in the cytoplasm of the tumor cells. D. The negative control anti-IgG Ab staining for the same sample was negative. A colour version of FIG. 14 is also provided.
FIG. 15. The US28 staining and HCMV ISH were negative in many normal adjacent tumor (NAT) breast tissues as exemplified in the figure with the sample BR1008b_J6. […] C. […] D. The IgG staining was also negative. […] Thus, the samples are exposed to exactly the same staining conditions and antibody/DNA probe concentrations. […] A colour version of FIG. 15 is also provided.
FIG. 16. A. The IHC staining of the primary breast cancer samples with US28-13-5G6-1D3 rAb were specific and positive in ˜73% of the 41 studied primary breast tumor samples. […]

[1] = biological target: T1, Peptide-1 […] (SEQ ID NO: 6, 4N variant of ECD3 of US28) (Human cytomegalovirus, UniProt P69332, D170N); type: binding, human cytomegalovirus (HCMV); conditions: both ECD3 variants compared
T1 construct: made in house; host or cells: chemical synthesis
Source text: The binding specificity of a binding molecule of the first aspect of the present invention having anti-ECD3 binding specificity in addition to the anti-SEQ ID NO: 177 specificity (and/or a second binding molecule having anti-ECD3 binding specificity with which a binding molecule of the first aspect of the present invention may be combined in a formulation) to an epitope within ECD3 of a US28 protein may, for example, be assessed in an ELISA, such as a methodology as described in the examples of this application, or by a variant of said methodology, such as by coating peptides derived from ECD3 (such as Bio-Peptide 1 and/or Bio-Peptide-2) on a first set of wells in a microtiter plate and coating a negative control (such as BSA) in a second set of wells in a microtiter plate. The first set of wells may optionally be further subdivided into a first subgroup of the first set of wells that comprises the sequence of a 4N-variant from ECD3 of US28, and a second subgroup of the first set of wells that comprises the sequence of a 4D-variant from ECD3 of US28, to permit the determination of the relative binding specificity to each variant. […]

[2] = tested on: HCMV infected lung tissue; assay: Immunohistochemistry (IHC) on human lung tissue; conditions: normal lung tissue with HCMV DNA positive macrophages
Source text: FIG. 12. […] binding in 1:400 dilution (w/v) to HCMV-infected human tissues were studied by using immunohistochemistry analysis (IHC). […] The arrows (in the non-colour version of this figure) mark the US28-13-5G6-1D3 rAb cytoplasmic staining on typical HCMV infected alveolar cells with the characteristic cytomegalo effect in the HCMV positive control slide. […] C. The same macrophages show positive HCMV DNA in the same lung biopsy, whereas there are no HCMV DNA signals in normal alveolar cells, which is coherent with the US28 staining in the same sample. […] E. The IE staining is negative for the alveolar HCMV positive macrophages in normal lung tissue. […] Colour versions of FIG. 12 are also provided alongside the non-colour versions.
FIG. 25. The binding of the N-terminal antibodies to HCMV infected lung tissue and HCMV negative myometrium were studied by IHC. […] C. […] E. Mouse lung tissue with staining IgG was used as negative control antibody. […] As with the US28-13-5G6-1D3 rAb, the ECD1-binding molecules stained typical HCMV infected cells with the characteristic cytomegalo effect, showing strong cytoplasmic or membranous staining in these cells, as the US28 protein is known to be located in cytoplasm and cell membrane, and stained positively for some tissue macrophages, which are known to be carriers of latent or reactivated HCMV.

BSA = BSA (Bos taurus, UniProt P02769); assay: ELISA, BSA coating (control); type: binding; conditions: ECD1 subclones
Experimental: Microtiter plate wells were coated with 100 μl of the solution containing: (i) Bio-Peptide-N; or (ii) Bio-Peptide-1 and Bio-Peptide-2; at a concentration of between 1-10 μg/ml in coating buffer, consisting of Na2CO3, 1.5 g and NaHCO3, 2.93 g in 1 L of distilled water in pH 9.6, and then incubated for 1-2 hours at room temperature. The plate was washed 3 times in wash buffer consisting of PBS containing 0.05% v/v Tween-20 and blotted with paper towels thereafter. 150 μl of blocking solution containing Phosphate buffered saline (PBS) containing 1% w/v BSA, was added to each well and the plate was incubated for 2 hours at 37° C. The wells were washed 4 times in wash buffer and blotted on paper towels after the last wash. 100 μl of antibody dilution was added to each well and the plate was incubated for 1 hour at 37° C. and thereafter washed 3 times in wash buffer. 100 μl enzyme-conjugated secondary antibody (appropriately diluted in wash buffer) was added to each well and the plate was incubated for 1 hour at 37° C. The wells were then again washed 3 times in wash buffer and blotted with paper towels after the last wash. […] The absorbance values were read immediately at the appropriate wavelength and the data analyzed by Cmax Plus, Molecular Devices, San Jose, CA 95134, USA,

Chain of BSA (P02769 25-607): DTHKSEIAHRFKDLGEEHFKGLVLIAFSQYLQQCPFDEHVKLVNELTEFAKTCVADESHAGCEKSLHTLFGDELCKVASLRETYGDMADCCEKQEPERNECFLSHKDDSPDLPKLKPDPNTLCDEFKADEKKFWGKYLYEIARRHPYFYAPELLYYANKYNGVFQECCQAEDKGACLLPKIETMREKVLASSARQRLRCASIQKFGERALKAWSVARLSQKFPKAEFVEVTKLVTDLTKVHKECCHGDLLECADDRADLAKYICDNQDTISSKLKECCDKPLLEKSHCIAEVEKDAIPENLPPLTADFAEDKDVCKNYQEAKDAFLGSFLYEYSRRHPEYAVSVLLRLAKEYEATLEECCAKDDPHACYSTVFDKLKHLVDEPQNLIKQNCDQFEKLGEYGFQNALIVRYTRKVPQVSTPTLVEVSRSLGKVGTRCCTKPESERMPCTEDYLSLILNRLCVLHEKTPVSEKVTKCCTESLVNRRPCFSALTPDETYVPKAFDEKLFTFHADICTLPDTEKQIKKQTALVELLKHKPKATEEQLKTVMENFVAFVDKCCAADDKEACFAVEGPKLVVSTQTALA

B1: US28-13-5G6-1D3: monoclonal antibody against ECD3 of HCMV US28; VH SEQ ID NO: 12, VL SEQ ID NO: 18; rAb is the recombinant product (antibody, V domains shown)
VH: EVKLVESGGGLVQPGGSLRLACATSGFTFTDYYMSWVRQPPGKALEWLGFIRSKANGYTTEYSASVKGRFTISRDNSQSILYLQMNTLRSEDSATYYCARDERRTAWLAYWGQGTLVTVSA
VL: DVLMTQTPLSLPVSLGDQASISCRSSQSIVHSNGNTYLDWYLQKPGQSPKLLIYKVSNRFSGVPDRFSGSGSGTDFTLKISRVEAEDLGVYYCFQGSHVPTWTFGGGTKLEIK
modifications: Mature form of VH sequence of 1D3, without the leader sequence; Mature form of VL sequence of 1D3, without the leader sequence
notes: monoclonal antibody against ECD3 of HCMV US28; rAb is the recombinant product
Breast cancer tissues; all samples
  staining of TNBC (n=7) and HER2 positive (n=11) metastases: positive
Breast cancer tissues; hormone receptor positive cancers, of 30 metastases
  number of negative metastasis samples: 2
[1]
  qualitative ELISA binding to Bio-Peptide-1 (4N) and Bio-Peptide-2 (4D): equal qualitative binding

B2: 13-5G6-1D3: mouse monoclonal IgG1 kappa antibody against US28 ECD3; VH SEQ ID NO: 12, VL SEQ ID NO: 18 (antibody, V domains shown)
VH: EVKLVESGGGLVQPGGSLRLACATSGFTFTDYYMSWVRQPPGKALEWLGFIRSKANGYTTEYSASVKGRFTISRDNSQSILYLQMNTLRSEDSATYYCARDERRTAWLAYWGQGTLVTVSA
VL: DVLMTQTPLSLPVSLGDQASISCRSSQSIVHSNGNTYLDWYLQKPGQSPKLLIYKVSNRFSGVPDRFSGSGSGTDFTLKISRVEAEDLGVYYCFQGSHVPTWTFGGGTKLEIK
modifications: Mature form of VH sequence of 1D3, without the leader sequence; Mature form of VL sequence of 1D3, without the leader sequence
[2]
  IHC staining of normal lung tissue: positive US28 staining for macrophages, but negative staining for alveolar cells

B3: 7B1F3: mouse IgG1 kappa antibody against US28 ECD1 Peptide-N; VH SEQ ID NO: 211, VL SEQ ID NO: 213 (antibody, V domains shown)
VH: EVQLQQSGAELAKPGASVKMSCKASGYTFTNYWMHWVKQRPGQGLEWIGYVNPRTGYTEYNQKFKDKATLTADKSSRTAYMQLSSLTSEDSAVYSCARILNGTGFAYWGQGTLVTVSA
VL: DIVLTQSPSSLTVSVGEKFTMSCKSSQSLLYSSNQKNYLAWYQQKPGQSPKLLIYWASTRESGVPDRFTGSGSGTDFTLAISSVKPEDLAIYYCQQYYSFPLTFGAGTKLEIK
modifications: Mature form of VH sequence of 7B1F3, without the leader sequence; Mature form of VL sequence of 7B1F3, without the leader sequence
BSA
  absorbance, Coating: BSA: 0.0474
